Experimental findings from publication PMC3630089, “ATP-Dependent Chromatin Remodeling by Cockayne Syndrome Protein B and NAP1-Like Histone Chaperones Is Required for Efficient Transcription-Coupled DNA Repair” (PLoS Genetics, 2013) are described below.

For the assay, the target named is T1, CSBΔN1 (CSB lacking amino acids 245-365), purified from SF9 cells (human, UniProt Q03468 1-1493, removing amino acids 245–365).
T1 construct: CSB with the N1 region (amino acids 245-365) removed; probably Flag-tagged like the other SF9 CSB proteins; source: SF9 cells, purified
T1 sequence (Q03468 other isoform, or with tags, fused parts or gaps with the stated changes): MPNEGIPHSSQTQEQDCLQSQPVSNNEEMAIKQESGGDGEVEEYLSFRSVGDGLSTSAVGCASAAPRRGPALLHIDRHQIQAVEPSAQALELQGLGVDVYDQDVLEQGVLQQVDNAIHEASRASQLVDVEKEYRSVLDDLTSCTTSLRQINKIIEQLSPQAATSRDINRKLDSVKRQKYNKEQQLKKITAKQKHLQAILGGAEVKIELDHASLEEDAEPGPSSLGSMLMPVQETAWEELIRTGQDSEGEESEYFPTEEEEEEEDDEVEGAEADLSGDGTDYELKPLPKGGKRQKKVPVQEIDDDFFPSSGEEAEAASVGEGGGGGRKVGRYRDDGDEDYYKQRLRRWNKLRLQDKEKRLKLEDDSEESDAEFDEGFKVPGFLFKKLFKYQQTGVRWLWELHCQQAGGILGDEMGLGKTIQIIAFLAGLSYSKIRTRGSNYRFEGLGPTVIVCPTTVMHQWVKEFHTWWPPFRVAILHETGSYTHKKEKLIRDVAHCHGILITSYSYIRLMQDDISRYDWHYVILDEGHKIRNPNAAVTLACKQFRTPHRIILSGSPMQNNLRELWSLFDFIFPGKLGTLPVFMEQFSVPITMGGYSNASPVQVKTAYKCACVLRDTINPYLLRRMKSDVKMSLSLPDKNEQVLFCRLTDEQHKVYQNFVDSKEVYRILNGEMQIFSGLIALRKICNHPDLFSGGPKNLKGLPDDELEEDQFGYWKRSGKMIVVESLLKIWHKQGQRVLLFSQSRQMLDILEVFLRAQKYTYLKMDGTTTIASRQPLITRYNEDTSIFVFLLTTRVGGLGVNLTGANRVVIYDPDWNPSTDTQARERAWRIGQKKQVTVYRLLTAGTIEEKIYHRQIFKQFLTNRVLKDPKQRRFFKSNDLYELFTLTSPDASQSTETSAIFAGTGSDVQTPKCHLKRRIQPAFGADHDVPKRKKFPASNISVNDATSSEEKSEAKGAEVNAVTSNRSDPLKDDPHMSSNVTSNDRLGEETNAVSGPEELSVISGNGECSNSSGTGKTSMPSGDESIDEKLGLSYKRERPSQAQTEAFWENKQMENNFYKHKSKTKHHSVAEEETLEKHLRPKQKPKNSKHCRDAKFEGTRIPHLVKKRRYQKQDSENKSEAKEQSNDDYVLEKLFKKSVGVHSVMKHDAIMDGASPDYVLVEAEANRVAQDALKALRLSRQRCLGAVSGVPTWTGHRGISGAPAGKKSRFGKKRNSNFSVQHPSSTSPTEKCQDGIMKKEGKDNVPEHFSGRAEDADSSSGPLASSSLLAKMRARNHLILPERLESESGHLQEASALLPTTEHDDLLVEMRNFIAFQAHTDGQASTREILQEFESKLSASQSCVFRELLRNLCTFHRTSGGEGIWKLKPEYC
The assay is described as follows: pull-down; GST-NAP1L1 immobilized on glutathione beads, mixed with purified CSB or CSBΔN1; Western blot. Conditions: both partners purified.

B1: GST-NAP1L1 fusion protein (natural protein, human, UniProt P55209 1-391, looked up)
chain: MADIDNKEQSELDQDLDDVEEVEEEETGEETKLKARQLTVQMMQNPQILAALQERLDGLVETPTGYIESLPRVVKRRVNALKNLQVKCAQIEAKFYEEVHDLERKYAVLYQPLFDKRFEIINAIYEPTEEECEWKPDEEDEISEELKEKAKIEDEKKDEEKEDPKGIPEFWLTVFKNVDLLSDMVQEHDEPILKHLKDIKVKFSDAGQPMSFVLEFHFEPNEYFTNEVLTKTYRMRSEPDDSDPFSFDGPEIMGCTGCQIDWKKGKNVTLKTIKKKQKHKGRGTVRTVTKTVSNDSFFNFFAPPEVPESGDLDDDAEAILAADFEIGHFLRERIIPRSVLYFTGEAIEDDDDDYDEEGEEADEEGEEEGDEENDPDYDPKKDQNPAECKQQ
notes: human NAP1-like histone chaperone NAP1L1; source: bacterially expressed, immobilized on glutathione beads
As for B1, the binding result is “binds”.
